These results are taken from US20100261220A1.

Data set [1] concerns the target α-tubulin of taxotere-stabilized mouse brain microtubules (mouse). Nature of the data set: cell-based or functional assay.
Data set [2] addresses β-tubulin of taxotere-stabilized mouse brain microtubules (mouse). Nature of the data set: cell-based or functional assay.
Data set [3] has as its system brain α-tubulin (taxotere-stabilized brain microtubules, Example VII).
Data set [4] deals with brain β-tubulin (taxotere-stabilized brain microtubules, Example VII).
In data set [5] the test system is adult murine brain tubulin.
The subject of data set [6] is young murine brain tubulin.
In data set [7] the test system is α-tubulin of taxotere-stabilized mouse brain microtubules.

Take “Ttll6ApΔ710-GFP (truncated Tetrahymena Ttll6Ap, amino acid codons 1-710, with N-terminal GFP)”: in the data set on NAP proteins, the “in vitro glutamylase activity” value was “No in vitro activity toward NAP proteins was detected”.

With “Ttll6ApΔ710-GFP (truncated Tetrahymena Ttll6Ap, amino acid codons 1-710, with N-terminal GFP) (from UniProt P42212 1-238) (enzyme)”, the results for the in vitro glutamylase activity of extracts of overexpressing cells, compared to non-induced cells in data set [1] and in data set [2] were 10 fold and 100 fold, respectively.

As to “GFP-Ttll3Bp (Tetrahymena Ttll3Bp with N-terminal GFP)”, in [3], the “in vitro tubulin glycylation activity (3H-glycine incorporation)” value is listed as “the GFP-Ttll3Bp-enriched extract had increased activity on α-tubulin”.

Consider “GFP-Ttll3Ap (Tetrahymena Ttll3Ap with N-terminal GFP)”, for which the “in vitro tubulin glycylation activity (3H-glycine incorporation)” value in [4] was “A GFP-Ttll3Ap-enriched extract showed a strong increase in glycylation activity on α- and β-tubulin”; in [3], “A GFP-Ttll3Ap-enriched extract showed a strong increase in glycylation activity on α- and β-tubulin”.

Turning to “GFP-Ttll6Ap (full-length Tetrahymena Ttll6Ap with N-terminal GFP)”, the “in vitro glutamylation of microtubules (3H-glutamate, fluorogram)” value is reported as “Enriched GFP-Ttll6Ap strongly modified microtubules made of adult brain tubulin” in [5], “less efficiently microtubules made of young brain tubulin” in data set [6] and “failed to detectably modify microtubules made of HeLa tubulin” in the data set on HeLa tubulin. Moreover, in data set [5], the “in vitro glutamylation of unpolymerized tubulin (3H-glutamate, fluorogram)” value is “enriched GFP-Ttll6Ap did not modify unpolymerized adult brain tubulin”.

With “Ttll1p-GFP (Tetrahymena thermophila Ttll1p with an N-terminal GFP)”, the “in vitro glutamylase activity of the anti-GFP immunoprecipitate” value in data set [7] is “a glutamylase activity directed mostly toward α-tubulin was co-immunoprecipitated with anti-GFP antibodies from extracts of overexpressing cells”.
